Columns and labels:
ClpC2 = target: T1, ClpC2 (Arabidopsis thaliana, UniProt Q9SXJ7); experiment: ATPase, inorganic phosphate release, Malachite green; type: biochemical; details: ClpC2 0.5 uM; basal activity without ClpT1
T1 construct: Hsp100 chaperones can assemble into hexamers
T1 sequence (Q9SXJ7 46-952): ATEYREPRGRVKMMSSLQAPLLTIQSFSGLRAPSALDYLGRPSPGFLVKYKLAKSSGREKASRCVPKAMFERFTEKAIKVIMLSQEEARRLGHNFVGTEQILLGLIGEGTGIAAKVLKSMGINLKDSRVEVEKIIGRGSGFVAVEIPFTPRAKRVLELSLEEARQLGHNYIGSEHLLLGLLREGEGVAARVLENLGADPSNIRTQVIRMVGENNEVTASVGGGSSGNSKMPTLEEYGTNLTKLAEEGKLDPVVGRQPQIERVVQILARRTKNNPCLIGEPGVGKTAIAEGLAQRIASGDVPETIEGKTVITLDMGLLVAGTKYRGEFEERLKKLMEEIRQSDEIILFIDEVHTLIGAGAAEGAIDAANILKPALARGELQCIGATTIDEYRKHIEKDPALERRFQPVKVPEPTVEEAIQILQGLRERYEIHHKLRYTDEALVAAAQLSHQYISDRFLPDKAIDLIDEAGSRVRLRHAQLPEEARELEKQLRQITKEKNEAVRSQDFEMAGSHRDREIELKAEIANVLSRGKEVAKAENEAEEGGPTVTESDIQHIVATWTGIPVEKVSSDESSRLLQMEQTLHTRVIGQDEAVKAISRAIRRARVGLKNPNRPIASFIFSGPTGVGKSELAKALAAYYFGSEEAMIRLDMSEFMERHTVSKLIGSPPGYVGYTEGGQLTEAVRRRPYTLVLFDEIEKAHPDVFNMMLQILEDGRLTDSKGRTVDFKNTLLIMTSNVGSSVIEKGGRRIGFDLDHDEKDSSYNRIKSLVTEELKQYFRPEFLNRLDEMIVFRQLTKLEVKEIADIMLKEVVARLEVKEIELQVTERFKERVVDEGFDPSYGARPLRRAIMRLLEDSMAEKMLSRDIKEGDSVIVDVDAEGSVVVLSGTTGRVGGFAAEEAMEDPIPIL

[1] = target: ClpT1 (recombinant mature ClpT1 from Arabidopsis thaliana, His-tag removed) (Arabidopsis thaliana) (UniProt Q93WL3); experiment: SEC; 6-fold concentrated sample and 10-fold diluted sample of ClpT1 injected; data not shown
[2] = target: ClpD (recombinant chloroplastic Hsp100 chaperone from Arabidopsis) (Arabidopsis thaliana) (UniProt P42762)
[3] = target: ClpD (recombinant chloroplastic Hsp100 chaperone from Arabidopsis) (Arabidopsis thaliana) (UniProt P42762); remark: listed apart in the source
[4] = target: ClpT1 (recombinant mature ClpT1 from Arabidopsis thaliana, His-tag removed) (Arabidopsis thaliana) (UniProt Q93WL3); experiment: cross-linking; EGS at 10, 20, 30 and 50-fold molar excess, 25 μM protein, 50 mM Hepes pH 7.5, 100 mM NaCl, 30 min at room temperature; SDS-PAGE with Coomassie staining
[5] = target: ClpD (recombinant chloroplastic Hsp100 chaperone from Arabidopsis) (Arabidopsis thaliana) (UniProt P42762); experiment: ultrafiltration (retention by a 50 kDa cut-off membrane); ClpC2 or ClpD with ClpT1 or GFP, 1.3 μM each, 50 mM Tris-HCl pH 8.0, 150 mM NaCl, 10 mM MgCl2, 5 mM ATP, 10 min at 25°C; Vivaspin 500, 30 s at 11,500 x g; permeate and retentate on SDS-PAGE, densitometry
[6] = target: ClpC2 (recombinant chloroplastic Hsp100 chaperone from Arabidopsis) (Arabidopsis thaliana) (UniProt Q9SXJ7); experiment: as above
[7] = target: ClpT1 (recombinant mature ClpT1 from Arabidopsis thaliana, His-tag removed) (Arabidopsis thaliana) (UniProt Q93WL3); experiment: SEC; purified ClpT1 on Superdex 75 10/300 GL, 0.5 mL/min, 50 mM Tris-HCl pH 8.0, 100 mM NaCl; monomer and dimer peaks integrated
[8] = target: ClpT1 (recombinant mature ClpT1 from Arabidopsis thaliana, His-tag removed) (Arabidopsis thaliana) (UniProt Q93WL3); experiment: SEC; the small dimer peak of the first run collected and reinjected into the column (second SEC step)
[9] = target: glutathione S-transferase; experiment: cross-linking; EGS at 10, 20, 30 and 50-fold molar excess, 25 μM protein, 50 mM Hepes pH 7.5, 100 mM NaCl, 30 min at room temperature; SDS-PAGE with Coomassie staining
[10] = substrate: Nc1ncnc2c1ncn2[C@@H]1O[C@H](COP(=O)(O)OP(=O)(O)OP(=O)(O)O)[C@@H](O)[C@H]1O; experiment: ATPase, inorganic phosphate release, Malachite green; Michaelis-Menten fit; type: biochemical, Arabidopsis thaliana; details: without ClpT1; ClpD 0.5 uM; ATP varied 0-12 mM, complete saturation not reached (extrapolated)

Question: Nc1ncnc2c1ncn2[C@@H]1O[C@H](COP(=O)(O)OP(=O)(O)OP(=O)(O)O)[C@@H](O)[C@H]1O [ATP] was tested. Which specific activity (ClpC2) did it give?
Answer: Both chaperones have a basal ATPase activity

Question: For “ClpT1 (recombinant mature ClpT1 from Arabidopsis thaliana, His-tag removed) (from UniProt Q93WL3 65-238) (natural protein)”, which percent dimer compared to the monomer species [1] is on record?
Answer: < 5%

Question: And the ATPase activity of ClpD (Malachite green), ClpT1:ClpD molar ratios from approximately 0.15:1 to 6:1; activation over the basal activity, back to the basal value at 6:1 [2]?
Answer: > 50%

Question: What about the Vmax of the ClpD ATPase in the presence of ClpT1 at a 1:1 molar ratio (0.19 nmol/(min × μg protein) without ClpT1) (nmol/(min × μg protein)) [3] of the same molecule?
Answer: 0.43

Question: What about the percent of the total protein cross-linked as dimer at the highest EGS concentration [4] of the same molecule?
Answer: 60%

Question: What about the stoichiometry N [4] of the same molecule?
Answer: 2

Question: And the percent of ClpT1 kept in the retentate [5]?
Answer: > 75%

Question: What about the percent of ClpT1 kept in the retentate [6] of the same molecule?
Answer: > 75%

Question: What about the percent of the total protein in the dimer peak [7] of the same molecule?
Answer: < 5%

Question: What about the stoichiometry N [7] of the same molecule?
Answer: 2

Question: And the percent of the total protein in the dimer peak after reinjection of the dimer peak [8]?
Answer: > 92%

Question: How did the stoichiometry N [9] turn out when glutathione S-transferase (enzyme) was run?
Answer: 2

B1: ClpD (Arabidopsis thaliana) (protein)
chain: AIIFSQKEAKSLGKDMVYTQHLLLGLIAEDRDPQGFLGSGITIDKAREAVWSIWDEANSDSKQEEASSTSYSKSTDMPFSISTKRVFEAAVEYSRTMDCQYIAPEHIAVGLFTVDDGSAGRVLKRLGANMNLLTAAALTRLKGEIAKDGREPSSSSKGSFESPPSGRIAGSGPGGKKAKNVLEQFCVDLTARASEGLIDPVIGREKEVQRVIQILCRRTKNNPILLGEAGVGKTAIAEGLAISIAEASAPGFLLTKRIMSLDIGLLMAGAKERGELEARVTALISEVKKSGKVILFIDEVHTLIGSGTVGRGNKGSGLDIANLLKPSLGRGELQCIASTTLDEFRSQFEKDKALARRFQPVLINEPSEEDAVKILLGLREKYEAHHNCKYTMEAIDAAVYLSSRYIADRFLPDKAIDLIDEAGSRARIEAFRKKKEDAICILSKPPNDYWQEIKTVQAMHEVVLSSRQKQDDGDAISDESGELVEESSLPPAAGDDEPILVGPDDIAAVASVWSGIPVQQITADERMLLMSLEDQLRGRVVGQDEAVAAISRAVKRSRVGLKDPDRPIAAMLFCGPTGVGKTELTKALAANYFGSEESMLRLDMSEYMERHTVSKLIGSPPGYVGFEEGGMLTEAIRRRPFTVVLFDEIEKAHPDIFNILLQLFEDGHLTDSQGRRVSFKNALIIMTSNVGSLAIAKGRHGSIGFILDDDEEAASYTGMKALVVEELKNYFRPELLNRIDEIVIFRQLEKAQMMEILNLMLQDLKSRLVALGVGLEVSEPVKELICKQGYDPAYGARPLRRTVTEIVEDPLSEAFLAGSFKPGDTAFVVLDDTGNPSVRTKPDSSTIRVTDKTSIA
notes: Hsp100 chaperones can assemble into hexamers
Question: B1 was tested. Which Km [10] did it give?
Answer: 19.1 mM

From publication PMC4243950, “Characterization of the accessory protein ClpT1 from Arabidopsis thaliana: oligomerization status and interaction with Hsp100 chaperones” (BMC Plant Biology, 2014)
